Source: the supplement of paper PMC10724198
± gives the standard deviation of the averaged measurements.

test system: Saccharomyces cerevisiae; assay: protein stability index of tFT-peptide fusion (C-terminal peptide) (PSI (0-1 scale)); higher = more stable (slower turnover); conditions: genetic background: doa10 deletion; temperature: 30 C
Description: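 MPS profiling in S. cerevisiae of the tFT-X12 degron library: putative degron peptides plus stable controls, 12 aa, fused to the C-terminus of a sfGFP-mCherry timer. Cells are FACS-sorted into 8 mCherry/sfGFP bins and deep-sequenced. PSI runs from 0 (unstable) to 1 (stable). Backgrounds are wild type, das1Δ and doa10Δ at 30 °C, and wild type, das1Δ, cdc34-1 and cdc53-1 at 37 °C; 2-3 technical replicates each.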
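Also: PSI is a weighted mean of sequencing reads over stability bins, variants kept only with over 10 reads, mCherry proximal and sfGFP distal, peptide attached via GGGS linker.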

Sequence	protein stability index
ISLVLVVIEVQR	0.135 ± 0.0075
ISVFLFAFFFIP	0.275 ± 0.016
ISVQKRRAIEII	0.266 ± 0.008
IVCFCFFLMFSL	0.4222 ± 0.0033
IVVLCHVFLDLG	0.074 ± 0.026
IWCQVGAFLVVF	0.18 ± 0.01
IYVLLDVNYHLP	0.3542 ± 0.0026
IYVSVMLLRYRF	0.3455 ± 0.00077
KCKIWFREVSMN	0.1748 ± 0.0015
KGSFDLPTFSLF	0.613 ± 0.015
KICAVRVIMDWC	0.351 ± 0.0053
KIKVFHEMVLMC	0.114 ± 0.0016
KKNKIYKERKNI	0.203 ± 0.02
KKNTQKKIKLSC	0.15 ± 0.032
KKRYSEIFKKNG	0.211 ± 0.033
KLLLTCTFLVFP	0.3361 ± 0.003
KNKRQKNTIRKQ	0.2745 ± 0.00035
KQNKKHKKLKSN	0.111 ± 0.0086
KRLRDFLVIMCS	0.112 ± 0.0067
KTLCFLCRTRNS	0.387 ± 0.014
KVRVRTTCWRKL	0.134 ± 0.0059
KYHLAAQLLVLL	0.401 ± 0.011
LAFAGRCGLYVC	0.289 ± 0.0035
LAGLFICTLISC	0.185 ± 0.012
LASCRIVVIYSI	0.163 ± 0.0081
LCFEQRYIGVLV	0.227 ± 0.008

Sequence	protein stability index
LCFVSTWVWSVG	0.368 ± 0.016
LCWLCIRWSRVV	0.0721 ± 0.015
LDIFRKLVIVLC	0.102 ± 0.027
LEALRFTFYHFF	0.203 ± 0.0091
LEGRVLRIFCVT	0.191 ± 0.011
LFFRCVFRISFF	0.351 ± 0.027
LFGIDIVITYLL	0.284 ± 0.015
LFILRPVVGVLN	0.368 ± 0.012
LFIWFVSSPFYC	0.3134 ± 0.0029
LFIYSVCSYYYE	0.227 ± 0.0051
LFRLPSPLLFFL	0.4911 ± 0.0026
LFSAFFPLLFLS	0.107 ± 0.014
LFYATRLLFLCI	0.34042 ± 0.00025
LGHSLVRFVYCF	0.349 ± 0.0072
LGVGVVPEFFVV	0.332 ± 0.022
LLFVVGTGRWVG	0.159 ± 0.0042
LLHSLILLEWVF	0.145 ± 0.013
LLIFGLLAVPSP	0.443 ± 0.031
LLLAMLLWVSTM	0.2826 ± 0.0026
LLLFLLLPPFPF	0.437 ± 0.028
LLLLLPLYLLPI	0.553 ± 0.035
LLLSLYFCFIFF	0.337 ± 0.0086
LLLSSILLILSS	0.2369 ± 0.00081
LLPLLLFFSLLR	0.601 ± 0.05
LLPLSLSLLLSV	0.414 ± 0.0064
LLSAVAHCYFIA	0.178 ± 0.013

Sequence	protein stability index
LLSLTLALPLAA	0.296 ± 0.0033
LLVFSSPPPAKF	0.808 ± 0.023
LLVSCPLVLRFR	0.6177 ± 0.0033
LLYSLVALGVCV	0.24309 ± 0.00016
LMFCPPLLRVAL	0.399 ± 0.026
LMFSRSLFIVKC	0.168 ± 0.0054
LMPYIIFLMSFQ	0.335 ± 0.028
LPPSVLPLPPSH	0.6756 ± 0.0016
LPPVPLRLTLVL	0.3197 ± 0.0027
LPRDPLHAQIAS	0.223 ± 0.0072
LQFSLPCFLLIF	0.211 ± 0.0099
LQLRKQILLLMT	0.169 ± 0.019
LQSVLRGIDCCA	0.214 ± 0.0044
LRCIFVVVSFTP	0.129 ± 0.0095
LRCLAIFLYRAF	0.399 ± 0.013
LRRQAFRYRTLL	0.1668 ± 0.0014
LRTLVFIWFMYV	0.126 ± 0.0092
LRTYSFTIGTLC	0.241 ± 0.027
LSALMVLSFILV	0.343 ± 0.011
LSFRLSYPLPIY	0.1 ± 0.013
LSIALPFPVLCR	0.0844 ± 0.017
LSITQLFCLCAV	0.2322 ± 0.0017
LSLSLQVVVFSM	0.3203 ± 0.00038
LSPYPLTFLFSQ	0.365 ± 0.014
LSWWCFLVLLHW	0.262 ± 0.017
LTPKRLTVCRLC	0.306 ± 0.019
